Experiment [1] has as its target T1, dynein light chain-1/protein inhibitor of nitric oxide synthase (DLC1/PIN), amino acids 1-89 (human, UniProt P63167 1-89).
T1 construct: Used both as in vitro translated 35S-labeled protein (aa 1-89) and as the endogenous protein of human cell lines (MCF-7, Ishikawa)
Kind of experiment: GST pull-down with in vitro translated DLC1/PIN.

The target of experiment [2] is T2, estrogen receptor alpha (ER), full-length (UniProt P03372 1-595).
T2 construct: Used as in vitro translated 35S-labeled full-length ER and as the endogenous ER of human cell lines (Ishikawa, MCF-7 derivatives); also called ERα; ERá
T2 sequence (looked up): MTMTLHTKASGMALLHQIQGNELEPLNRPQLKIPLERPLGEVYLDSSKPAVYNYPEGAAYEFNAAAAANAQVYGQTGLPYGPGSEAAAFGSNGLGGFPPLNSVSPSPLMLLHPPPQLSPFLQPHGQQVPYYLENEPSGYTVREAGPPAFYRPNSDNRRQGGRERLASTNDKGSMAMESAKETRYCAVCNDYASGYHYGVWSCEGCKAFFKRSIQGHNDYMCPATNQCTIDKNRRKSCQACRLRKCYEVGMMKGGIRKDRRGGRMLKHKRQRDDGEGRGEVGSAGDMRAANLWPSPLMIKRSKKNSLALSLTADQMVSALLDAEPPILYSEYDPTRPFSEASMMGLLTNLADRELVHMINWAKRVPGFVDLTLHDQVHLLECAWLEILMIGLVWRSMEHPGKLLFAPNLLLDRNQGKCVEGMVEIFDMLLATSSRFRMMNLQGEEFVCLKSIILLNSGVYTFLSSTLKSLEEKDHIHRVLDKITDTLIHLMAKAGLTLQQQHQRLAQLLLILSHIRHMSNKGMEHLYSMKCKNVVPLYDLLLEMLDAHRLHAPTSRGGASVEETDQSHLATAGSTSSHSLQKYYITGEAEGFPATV
Kind of experiment: GST pull-down with in vitro translated 35S-ER.

The target in experiment [3] is T1, dynein light chain-1/protein inhibitor …. Kind of experiment: immunoprecipitation with HA antibody from Tet on-HA-Pak1-T423E MCF-7 cells, immunoblot. For orientation: In western blotting, separated proteins are transferred to a membrane and probed.
The target of experiment [4] is T2, estrogen receptor alpha (ER), …. Nature of the experiment: immunoprecipitation with anti-Pak1 Ab, immunoblot with ERα Ab.

B1: GST-Pak1 auto inhibitory domain (other)
chain: RFYRSILPGDKTNKKKEKERPEISLPSDFEHTIHVGFDAVTGEFTGMPEQWARLLQTSNITKSEQKKNPQAVLDVLEFYN
notes: not shown: glutathione-S-transferase (GST) fusion partner
For B1, the binding result in experiment [1] was “no binding”.

B2: GST-Pak1 Cdc42/Rac-interacting (CRIB) domain (other)
chain: ISLPSDFEHTIHVGFDAVTGEFTGMPEQWARLLQTSNITKSEQKKNPQAVLDVLEFYNSKKTSNSQKYMSFTDKS
notes: as for B1
B2: in experiment [1], the binding result is on record as “no binding”.

B3: GST-DLC1 deletion construct lacking the C-terminal amino acids 67-89 (other)
chain: MCDRKAVIKNADMSEEMQQDSVECATQALEKYNIEKDIAAHIKKEFDKKYNPTWHCIVGRNFGSYV
notes: not shown: GST fusion partner at the N end and any linker to it
Consider B3, for which the binding result in experiment [2] was “no binding”.

B4: GST-Pak1 N-terminal domain (amino acids 1-132) (other)
chain: MSNNGLDIQDKPPAPPMRNTSTMIGVGSKDAGTLNHGSKPLPPNPEEKKKKDRFYRSILPGDKTNKKKEKERPEISLPSDFEHTIHVGFDAVTGEFTGMPEQWARLLQTSNITKSEQKKNPQAVLDVLEFYN
notes: as for B1
B4: in experiment [1], the binding result is reported as “no binding”.

B5: HA-tagged T423E Pak1 (catalytically active Pak1) (enzyme)
chain: MSNNGLDIQDKPPAPPMRNTSTMIGVGSKDAGTLNHGSKPLPPNPEEKKKKDRFYRSILPGDKTNKKKEKERPEISLPSDFEHTIHVGFDAVTGEFTGMPEQWARLLQTSNITKSEQKKNPQAVLDVLEFYNSKKTSNSQKYMSFTDKSAEDYNSSNALNVKAVSETPAVPPVSEDEDDDDDDATPPPVIAPRPEHTKSVYTRSVIEPLPVTPTRDVATSPISPTENNTTPPDALTRNTEKQKKKPKMSDEEILEKLRSIVSVGDPKKKYTRFEKIGQGASGTVYTAMDVATGQEVAIKQMNLQQQPKKELIINEILVMRENKNPNIVNYLDSYLVGDELWVVMEYLAGGSLTDVVTETCMDEGQIAAVCRECLQALEFLHSNQVIHRDIKSDNILLGMDGSVKLTDFGFCAQITPEQSKRSEMVGTPYWMAPEVVTRKAYGPKVDIWSLGIMAIEMIEGEPPYLNENPLRALYLIATNGTPELQNPEKLSAIFRDFLNRCLDMDVEKRGSAKELLQHQFLKIAKPLSSLTPLIAAAKEATKNNH
notes: Expressed in MCF-7 cells under a Tet-on promoter; also called HA-Pak1-T423E; not shown: HA tag
As for B5, the binding result in experiment [3] is reported as “binds”.

B6: p21-activated protein kinase 1 (Pak1), full-length, amino acids 1-545 (enzyme)
chain: MSNNGLDIQDKPPAPPMRNTSTMIGVGSKDAGTLNHGSKPLPPNPEEKKKKDRFYRSILPGDKTNKKKEKERPEISLPSDFEHTIHVGFDAVTGEFTGMPEQWARLLQTSNITKSEQKKNPQAVLDVLEFYNSKKTSNSQKYMSFTDKSAEDYNSSNALNVKAVSETPAVPPVSEDEDDDDDDATPPPVIAPRPEHTKSVYTRSVIEPLPVTPTRDVATSPISPTENNTTPPDALTRNTEKQKKKPKMSDEEILEKLRSIVSVGDPKKKYTRFEKIGQGASGTVYTAMDVATGQEVAIKQMNLQQQPKKELIINEILVMRENKNPNIVNYLDSYLVGDELWVVMEYLAGGSLTDVVTETCMDEGQIAAVCRECLQALEFLHSNQVIHRDIKSDNILLGMDGSVKLTDFGFCAQITPEQSKRSTMVGTPYWMAPEVVTRKAYGPKVDIWSLGIMAIEMIEGEPPYLNENPLRALYLIATNGTPELQNPEKLSAIFRDFLNRCLDMDVEKRGSAKELLQHQFLKIAKPLSSLTPLIAAAKEATKNNH
notes: Used both as in vitro translated 35S-labeled full-length protein and as the endogenous protein of human cell lines
As for B6, in experiment [4], the binding result is “binds”.

These data come from patent publication US20040208880A1 (University of Texas, published 2004).
